Results published in paper PMC2719906.

Molecular target: WASP GBD (GTPase binding domain, residues 242-310) (UniProt P42768)
Assay: NMR titration

Chain of WASP GBD (GTPase binding domain, residues 242-310) (P42768 242-310): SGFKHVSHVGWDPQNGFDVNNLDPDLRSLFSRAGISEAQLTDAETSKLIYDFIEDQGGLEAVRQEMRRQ
Chain of EspFU R5 (five-repeat fragment) (P0DJ88 80-314): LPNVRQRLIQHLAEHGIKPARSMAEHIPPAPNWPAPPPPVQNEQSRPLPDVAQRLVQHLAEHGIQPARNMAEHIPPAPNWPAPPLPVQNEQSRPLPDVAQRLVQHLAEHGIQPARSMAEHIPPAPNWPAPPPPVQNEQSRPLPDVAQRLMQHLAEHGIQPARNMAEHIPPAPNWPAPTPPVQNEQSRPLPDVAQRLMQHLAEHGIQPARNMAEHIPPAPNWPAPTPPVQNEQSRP

Q: Which stoichiometry N does the source give for “EspFU R5 (five-repeat fragment) (from UniProt P0DJ88 80-314) (domain or fragment)” here?
A: 0.2 EspFU:GBD
